First the molecules themselves.
B1: SWI/SNF complex subunit SMARCC1, residues 620 to 663; numbered along this chain, Q92922 (parent)
chain: GREWTEQETLLLLEALEMYKDDWNKVSEHVGSRTQDECILHFLR

± gives the uncertainty stated by the source.

Variants of B1 are the subject of this series. In words: abundance fitness (aPCA) (normalised: wild type 0, dead -1); higher = more abundant; growth selection in yeast, the domain comes from the species named. The note with it: Homo sapiens.
In the case of L10R, the abundance fitness is 0.158 ± 0.056.
As for L10E, the abundance fitness was found to be 0.082 ± 0.069.
The same measure for L10F: -0.008 ± 0.077; for L10A: -0.019 ± 0.067; for V30A: -0.97 ± 0.29.
In the case of V30H, the abundance fitness was -1.1 ± 0.27.
For V30S the value was -0.757 ± 0.17; for E6V, -0.227 ± 0.072.
For E6C the value was -0.069 ± 0.073; for E6K, 0.181 ± 0.081.
For E6D the value was -0.164 ± 0.072; for E6Q, 0.212 ± 0.075; for T34I, -0.4 ± 0.36.
As to T34R, the abundance fitness is 0.137 ± 0.084.
In the case of T34Q, the abundance fitness was 0.199 ± 0.14.
The same measure for N24E: 0.042 ± 0.096; for N24Q: 0.173 ± 0.11.
In the case of N24I, the abundance fitness is -0.13 ± 0.16.
The same measure for N24L: 0.013 ± 0.056; for N24P: 0.045 ± 0.072.
The same measure for L16T: 0.316 ± 0.058.
For L16W the value was 0.024 ± 0.082.
With L16E, the abundance fitness was determined as 0.274 ± 0.073.
With L16R, the abundance fitness was 0.469 ± 0.052.
As to L16S, the abundance fitness is 0.094 ± 0.063.
Turning to D22I, the abundance fitness is -0.733 ± 0.17.
The same measure for D22T: -0.581 ± 0.33.
The same measure for D22E: -0.017 ± 0.1; for D22Y: -0.714 ± 0.16; for D22V: -0.526 ± 0.14.
Consider E14C, for which the abundance fitness was -0.684 ± 0.16.
On to E14N, for which the abundance fitness is -0.164 ± 0.12.
For E14V the value was -0.552 ± 0.17; for E14Q, -0.045 ± 0.1; for E14P, -1.15 ± 0.48.
As for E14R, the abundance fitness is -0.28 ± 0.12.
As for L13V, the abundance fitness was -0.126 ± 0.18.
The same measure for E8L: -0.936 ± 0.13.
For E8I the value was -0.746 ± 0.23; for E8H, -0.54 ± 0.17.
For the variant E8A, the abundance fitness was -0.808 ± 0.14.
Consider E8Y, for which the abundance fitness is -1.21 ± 0.23.
For D36A the value was -0.034 ± 0.064; for D36G, 0.039 ± 0.1; for D36P, -0.083 ± 0.066.
On to D36E, for which the abundance fitness is -0.002 ± 0.078.
As for D36T, the abundance fitness is -0.042 ± 0.077.
Turning to E28Q, the abundance fitness was -0.181 ± 0.078.
The same measure for E28V: -0.311 ± 0.083; for E28C: -0.2 ± 0.12; for E28H: -0.723 ± 0.31.
For E28G the value was -0.112 ± 0.085; for E28R, -0.013 ± 0.066.
As for D21G, the abundance fitness was -0.046 ± 0.088.
The same measure for D21T: -0.17 ± 0.14.
For D21P the value was 0.019 ± 0.13; for R33L, -0.832 ± 0.15; for R33V, -0.387 ± 0.09.
The same measure for G31P: -0.11 ± 0.061.
Turning to G31Q, the abundance fitness is -0.518 ± 0.089.
The same measure for M18Y: -0.129 ± 0.13; for M18S: -0.168 ± 0.076; for M18I: -0.264 ± 0.23.
The same measure for M18C: -0.158 ± 0.14.
The same measure for M18R: 0.142 ± 0.069.
As to M18H, the abundance fitness is -0.04 ± 0.084.
For M18Q the value was 0.056 ± 0.077; for R2S, -0.147 ± 0.065.
On to R2G, for which the abundance fitness is -0.051 ± 0.11.
The same measure for R2Y: -0.04 ± 0.097.
For S27E the value was 0.105 ± 0.072; for S27N, -0.204 ± 0.092.
For S27Q the value was 0.246 ± 0.1; for S27W, -0.56 ± 0.15; for S27K, 0.145 ± 0.071.
For the variant L43G, the abundance fitness turned out to be 0.342 ± 0.094.
Take L43T: the abundance fitness stood at 0.584 ± 0.063.
L43H: the abundance fitness was found to be 0.514 ± 0.077.
The same measure for F42L: -0.29 ± 0.073; for Y19Q: -0.423 ± 0.13; for Y19C: 0.09 ± 0.099.
For Y19T the value was -0.298 ± 0.087; for Y19V, -0.69 ± 0.18.
Y19P: the abundance fitness is -0.952 ± 0.19.
The same measure for Y19H: 0.062 ± 0.14; for Y19K: -0.263 ± 0.14; for Y19I: -0.693 ± 0.15.
The same measure for Y19S: -0.362 ± 0.097.
Take H29I: the abundance fitness is -0.469 ± 0.44.
The same measure for H29P: -0.796 ± 0.16; for H29E: -0.551 ± 0.25; for H29V: -0.349 ± 0.11.
Regarding H29C, the abundance fitness is -0.382 ± 0.12.
The same measure for H29G: -0.803 ± 0.17; for K25N: -0.245 ± 0.22; for K25Q: -0.122 ± 0.07.
On to K25I, for which the abundance fitness is -0.426 ± 0.13.
K25P: the abundance fitness is -0.377 ± 0.083.
For K25W the value was -0.562 ± 0.13; for I39W, -0.333 ± 0.15.
With I39E, the abundance fitness came out at 0.513 ± 0.082.
For the variant I39A, the abundance fitness was determined as 0.178 ± 0.066.
For I39S the value was 0.32 ± 0.047.
Consider I39K, for which the abundance fitness worked out at 0.564 ± 0.081.
The same measure for V26P: -0.919 ± 0.22.
With V26N, the abundance fitness was -0.533 ± 0.41.
For the variant V26W, the abundance fitness is -0.494 ± 0.19.
The same measure for V26T: 0.029 ± 0.11.
Consider V26G, for which the abundance fitness was -0.686 ± 0.21.
For V26Y the value was -0.57 ± 0.26; for V26C, 0.543 ± 0.29; for V26R, -0.424 ± 0.091.
The same measure for A15P: -1.19 ± 0.34; for L11A: -0.134 ± 0.091.
For L11F the value was -0.096 ± 0.09; for L11K, 0.021 ± 0.095; for L11E, -0.281 ± 0.1.
Consider L11I, for which the abundance fitness was -0.29 ± 0.088.
Turning to T9Y, the abundance fitness is -0.022 ± 0.094.
The same measure for T9M: 0.037 ± 0.11; for T9P: -0.449 ± 0.13.
The same measure for L12T: -0.602 ± 0.11.
Regarding L12A, the abundance fitness was -0.213 ± 0.076.
For the variant E17H, the abundance fitness was -0.357 ± 0.18.
For E17A the value was -0.087 ± 0.072; for E17F, -0.548 ± 0.33; for E17D, 0.054 ± 0.092.
For K20L the value was -0.618 ± 0.089.
For K20N the value was -0.105 ± 0.11.
K20H: the abundance fitness was determined as 0.021 ± 0.1.
The same measure for K20M: -0.118 ± 0.12.
For S32E, the abundance fitness was 0.105 ± 0.088.
The same measure for S32R: -0.176 ± 0.067; for S32V: -0.191 ± 0.074.
For S32T the value was 0.203 ± 0.056; for E3C, -0.353 ± 0.14.
For the variant E3Y, the abundance fitness amounted to 0.229 ± 0.11.
The same measure for E3W: -0.674 ± 0.12; for E3A: -0.04 ± 0.12; for W4A: -0.254 ± 0.17.
Regarding L40A, the abundance fitness turned out to be 0.28 ± 0.066.
For L40Q the value was 0.204 ± 0.09; for L40T, 0.206 ± 0.057; for L40W, 0.326 ± 0.14.
Turning to W23K, the abundance fitness was -0.503 ± 0.44.
As for W23V, the abundance fitness is -0.783 ± 0.13.
For E37N the value was -0.717 ± 0.41; for E37Q, -0.303 ± 0.18.
As to E37M, the abundance fitness is -0.4 ± 0.23.
As for Q7R, the abundance fitness stood at 0.206 ± 0.15.
For the variant Q7V, the abundance fitness was -0.227 ± 0.28.
For the variant C38T, the abundance fitness was -0.4 ± 0.12.
The same measure for C38G: -0.778 ± 0.21; for C38D: -0.296 ± 0.17; for Q35C: 0.079 ± 0.15.
Turning to Q35L, the abundance fitness was -0.077 ± 0.073.
For Q35E the value was -0.075 ± 0.079; for Q35I, -0.186 ± 0.18; for T5P, -0.572 ± 0.16.
With T5A, the abundance fitness was -0.363 ± 0.12.
The same measure for T5G: -0.755 ± 0.11.
The same measure for T5Q: -0.127 ± 0.11; for H41E: -0.178 ± 0.11.
The same measure for H41M: -0.187 ± 0.12; for H41N: 0.097 ± 0.12; for H41Y: 0.184 ± 0.098.
Turning to H41F, the abundance fitness was -0.189 ± 0.15.

The values above are taken from the Human Domainome abundance scans (Beltran et al. 2025).
